Legend:
purified protein = substrate: CC(=O)O; assay: purified protein; conditions: acetyl-CoA-forming direction (acetate limiting), 37°C
[1] = substrate: CC(C)(COP(=O)(O)OP(=O)(O)OC[C@H]1O[C@@H](n2cnc3c(N)ncnc32)[C@H](O)[C@@H]1OP(=O)(O)O)[C@@H](O)C(=O)NCCC(=O)NCCS; assay: coupled enzyme assay, NAD(H) oxidation; assay type: biochemical, Syntrophus aciditrophicus; conditions: acetyl-CoA-forming direction (CoA limiting), 37°C
Source text: coupled enzyme assay, NAD(H) oxidation on Purified Acs1 (native AMP-forming, acetyl-CoA synthetase)

[2] = substrate: O=P(O)(O)OP(=O)(O)O; assay: ATP formation coupled to hexokinase / glucose-6-phosphate dehydrogenase, NADP+ reduction; assay type: biochemical, Syntrophus aciditrophicus; conditions: acetate-forming direction (pyrophosphate limiting), AMP and acetyl-CoA co-substrates, 37°C, enzyme purified without ammonium sulfate fractionation
Source text: ATP formation coupled to hexokinase / glucose-6-phosphate dehydrogenase, NADP+ reduction on Purified Acs1 (native AMP-forming, acetyl-CoA synthetase)

[3] = substrate: CC(C)(COP(=O)(O)OP(=O)(O)OC[C@H]1O[C@@H](n2cnc3c(N)ncnc32)[C@H](O)[C@@H]1OP(=O)(O)O)[C@@H](O)C(=O)NCCC(=O)NCCS; assay: coupled enzyme assay, NAD(H) oxidation; assay type: biochemical, Syntrophus aciditrophicus; conditions: acetyl-CoA-forming direction (CoA limiting), 37°C; remark: listed apart in the source
Source text: coupled enzyme assay, NAD(H) oxidation on Recombinant Acs1 (SYN_02635 gene product)

Row | Protein | Km (purified protein) [µM] | Km [1] [µM] | Km [2] [µM] | Km [3] [µM]
1 | Purified Acs1 (native AMP-forming, acetyl-CoA synthetase) (Syntrophus aciditrophicus SB) (protein, native, purified from crotonate-grown pure-culture cell extracts; single band ~74 kDa on denaturing gel; untagged) MGEESILKEFYPVPERIKAKAWVKGRGEYDKLYAESIADSAAWWAKQADEILTFYKKWDKVEDFNFDIRKGPIHVKYFEGAKLNVSYNCLDRHLATKGDKVAIQWEGNEPGEQKAYTYKDLHTEVCKFANVLKKHGIKRGDRVCIYTPMVVEAAIAMLACTRIGAVHAIVFGGFSSDALAVRIQDAQAKLLVVCDGTFRGAKAVPQKKDADVALKECPTIEKVIVVRRVGDKIACDMTPGRDLWWHDEMATVDANCECEQMDAEDTLFILYTSGSTGQPKGALHTTAGYLLYAAYTSKFAFDLHDEDIHWCTADIGWVTGHSYVVYGPLALGATSIMFEGVPNYPTYSRFWQVVEKYKVTSFYTAPTAIRAIAKEGDEWLKGIDLSSLRVLSSVGEPLNPEAWQWFYEKIGNSQCPIVDTWWQTETGGHMILPLPGAIDIKPAKPALPIMGVIPTLVDDQTGEELKNMEANGALCFKTAWPGITRTIYGDHKRYEETYFEPYPGNYFSGDGALRDKDGYYRITGRIDDVINVSGHRMGTAEIEATLNAHEKVAESAVVGYPHEVKGQSIYAYITLKTGFEPSEDLKKELTQYVRTIIGPIATPEKIQWADGLPKTRSGKIMRRILKKVAANELGDLGDTSTLADPAVVDDLVKNRL | 590 ± 200 | 260 ± 100 | 250 ± 20 | –
2 | Recombinant Acs1 (SYN_02635 gene product) (Syntrophus aciditrophicus SB) (protein) MGEESILKEFYPVPERIKAKAWVKGRGEYDKLYAESIADSAAWWAKQADEILTFYKKWDKVEDFNFDIRKGPIHVKYFEGAKLNVSYNCLDRHLATKGDKVAIQWEGNEPGEQKAYTYKDLHTEVCKFANVLKKHGIKRGDRVCIYTPMVVEAAIAMLACTRIGAVHAIVFGGFSSDALAVRIQDAQAKLLVVCDGTFRGAKAVPQKKDADVALKECPTIEKVIVVRRVGDKIACDMTPGRDLWWHDEMATVDANCECEQMDAEDTLFILYTSGSTGQPKGALHTTAGYLLYAAYTSKFAFDLHDEDIHWCTADIGWVTGHSYVVYGPLALGATSIMFEGVPNYPTYSRFWQVVEKYKVTSFYTAPTAIRAIAKEGDEWLKGIDLSSLRVLSSVGEPLNPEAWQWFYEKIGNSQCPIVDTWWQTETGGHMILPLPGAIDIKPAKPALPIMGVIPTLVDDQTGEELKNMEANGALCFKTAWPGITRTIYGDHKRYEETYFEPYPGNYFSGDGALRDKDGYYRITGRIDDVINVSGHRMGTAEIEATLNAHEKVAESAVVGYPHEVKGQSIYAYITLKTGFEPSEDLKKELTQYVRTIIGPIATPEKIQWADGLPKTRSGKIMRRILKKVAANELGDLGDTSTLADPAVVDDLVKNRL | 960 ± 20 | – | – | 210 ± 50

Source: paper PMC4992975, “Pyrophosphate-Dependent ATP Formation from Acetyl Coenzyme A in Syntrophus aciditrophicus, a New Twist on ATP Formation” (mBio, 2016)
